Measurements reported in PMC2692910.

Target: αB11.4, α-crystallin domain construct of human αB-Crystallin (human) (UniProt P02511)
Experiment: 15N NMR relaxation

## αB11.4, α-crystallin domain construct of human αB-Crystallin (from UniProt P02511 57-158) (domain or fragment)
  stoichiometry N: 2
